According to publication PMC10250209, “UV-DDB stimulates the activity of SMUG1 during base excision repair of 5-hydroxymethyl-2'-deoxyuridine moieties”:

Biological target: UV-DDB (DDB1-DDB2 heterodimer);SMUG1 WT (UniProt Q16531+Q92466+Q53HV7)
Experiment: single-molecule DNA tightrope
Settings: both Qdot-labeled; 91.1% of co-localized particles stationary and persistent; tetrahydrofuran abasic site every 2 kb; EMSA: 8 nM DNA, 20 mM HEPES pH 7.5, 150 mM NaCl, 2 mM DTT (5 mM for SMUG1), 5% glycerol, 0.5 mg/ml BSA (0.5 mg/l [sic] for SMUG1), +/- 1.5 mM MgCl2, RT 20 min

Sequence of UV-DDB (DDB1-DDB2 heterodimer);SMUG1 WT (Q16531 whole entry, chain 1 of 3): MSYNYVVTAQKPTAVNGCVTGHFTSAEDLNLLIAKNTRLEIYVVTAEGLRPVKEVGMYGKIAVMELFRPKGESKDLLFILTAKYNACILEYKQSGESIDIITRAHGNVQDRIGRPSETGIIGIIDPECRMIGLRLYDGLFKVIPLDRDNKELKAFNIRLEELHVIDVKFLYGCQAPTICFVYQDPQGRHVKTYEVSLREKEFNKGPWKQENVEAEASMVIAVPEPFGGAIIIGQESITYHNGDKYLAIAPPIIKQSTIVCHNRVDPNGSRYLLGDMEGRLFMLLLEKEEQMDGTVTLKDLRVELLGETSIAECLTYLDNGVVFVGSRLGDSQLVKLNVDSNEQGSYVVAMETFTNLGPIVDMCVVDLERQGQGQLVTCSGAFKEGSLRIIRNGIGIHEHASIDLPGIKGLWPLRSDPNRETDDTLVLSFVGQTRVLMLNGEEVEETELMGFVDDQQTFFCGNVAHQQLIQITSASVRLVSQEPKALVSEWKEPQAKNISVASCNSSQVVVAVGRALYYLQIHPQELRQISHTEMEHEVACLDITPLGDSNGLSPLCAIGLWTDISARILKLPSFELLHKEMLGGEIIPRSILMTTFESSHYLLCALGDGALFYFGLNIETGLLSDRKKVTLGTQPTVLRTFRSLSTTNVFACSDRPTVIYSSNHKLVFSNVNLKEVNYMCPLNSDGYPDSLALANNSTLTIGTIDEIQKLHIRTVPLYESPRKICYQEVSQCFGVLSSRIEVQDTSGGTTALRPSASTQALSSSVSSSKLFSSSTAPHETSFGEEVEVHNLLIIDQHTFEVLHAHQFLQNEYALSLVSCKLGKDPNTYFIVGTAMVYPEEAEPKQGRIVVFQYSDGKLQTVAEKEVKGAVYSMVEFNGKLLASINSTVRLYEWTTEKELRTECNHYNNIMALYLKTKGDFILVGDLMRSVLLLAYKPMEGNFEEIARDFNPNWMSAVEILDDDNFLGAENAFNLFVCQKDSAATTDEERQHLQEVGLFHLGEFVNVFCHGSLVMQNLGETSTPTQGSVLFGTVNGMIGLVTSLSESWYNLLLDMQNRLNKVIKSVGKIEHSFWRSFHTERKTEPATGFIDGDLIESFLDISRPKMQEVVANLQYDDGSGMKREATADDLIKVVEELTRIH
Sequence of UV-DDB (DDB1-DDB2 heterodimer);SMUG1 WT (Q92466 whole entry, chain 2 of 3): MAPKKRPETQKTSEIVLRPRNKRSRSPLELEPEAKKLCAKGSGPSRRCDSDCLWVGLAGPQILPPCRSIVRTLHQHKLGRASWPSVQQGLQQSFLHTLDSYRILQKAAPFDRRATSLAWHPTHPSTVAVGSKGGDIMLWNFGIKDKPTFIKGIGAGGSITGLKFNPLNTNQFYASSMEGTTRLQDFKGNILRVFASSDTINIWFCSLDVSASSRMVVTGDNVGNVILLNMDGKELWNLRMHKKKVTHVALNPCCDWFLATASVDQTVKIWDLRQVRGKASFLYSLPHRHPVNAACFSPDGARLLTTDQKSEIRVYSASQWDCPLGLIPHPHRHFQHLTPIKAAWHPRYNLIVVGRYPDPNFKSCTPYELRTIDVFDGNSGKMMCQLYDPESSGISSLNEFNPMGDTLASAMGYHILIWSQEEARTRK
Sequence of UV-DDB (DDB1-DDB2 heterodimer);SMUG1 WT (Q53HV7 whole entry, chain 3 of 3): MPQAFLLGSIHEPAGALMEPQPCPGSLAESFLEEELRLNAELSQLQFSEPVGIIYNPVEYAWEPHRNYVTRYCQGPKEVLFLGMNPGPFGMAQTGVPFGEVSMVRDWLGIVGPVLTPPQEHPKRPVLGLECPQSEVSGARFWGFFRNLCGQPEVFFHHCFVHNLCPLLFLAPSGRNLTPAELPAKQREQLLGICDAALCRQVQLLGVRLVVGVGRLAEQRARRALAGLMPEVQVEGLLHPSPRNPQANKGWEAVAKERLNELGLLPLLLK

DNA tightrope with one THF site every 2 kb
binding (% of particles co-localized): 15.6
